Assays:
[1] = target: T1, human UHRF1 TTD domain (residues 126-284) D142A/E153A (human, UniProt Q96T88 126-284, D142A | E153A); test: cell-based or functional assay
T1 sequence (looked up): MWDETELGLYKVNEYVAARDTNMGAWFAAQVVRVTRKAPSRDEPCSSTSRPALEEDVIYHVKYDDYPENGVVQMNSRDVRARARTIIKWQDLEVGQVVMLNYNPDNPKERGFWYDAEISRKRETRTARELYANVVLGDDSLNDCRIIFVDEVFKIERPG

[2] = target: T2, human UHRF1 TTD domain (residues 126-284) N147A (human, UniProt Q96T88 126-284, N147A); test: ITC
T2 sequence (looked up): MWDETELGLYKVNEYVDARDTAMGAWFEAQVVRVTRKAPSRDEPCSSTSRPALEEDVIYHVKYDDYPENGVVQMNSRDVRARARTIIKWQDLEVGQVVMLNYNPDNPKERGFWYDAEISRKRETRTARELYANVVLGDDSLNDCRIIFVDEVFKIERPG

[3] = target: T3, human UHRF1 TTD-PHD dual domains (residues 126-366) (human, UniProt Q96T88 126-366); test: ITC
T3 sequence (looked up): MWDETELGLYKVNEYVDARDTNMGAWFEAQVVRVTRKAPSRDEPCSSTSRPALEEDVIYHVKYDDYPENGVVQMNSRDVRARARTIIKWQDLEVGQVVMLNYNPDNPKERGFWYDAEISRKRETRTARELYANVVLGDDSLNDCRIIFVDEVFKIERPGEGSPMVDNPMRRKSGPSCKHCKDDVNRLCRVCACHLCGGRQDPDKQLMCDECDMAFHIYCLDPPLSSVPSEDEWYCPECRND

[4] = target: T4, human UHRF1 TTD domain (residues 126-284) N194A (human, UniProt Q96T88 126-284, N194A); test: ITC
T4 sequence (looked up): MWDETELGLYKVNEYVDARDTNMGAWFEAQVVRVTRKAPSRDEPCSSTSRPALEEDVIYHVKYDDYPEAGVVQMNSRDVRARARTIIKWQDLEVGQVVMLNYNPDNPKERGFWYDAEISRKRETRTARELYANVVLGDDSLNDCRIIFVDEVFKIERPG

chromatin = conditions: previous study; ref Zhang et al., 2015; cited from earlier work

Molecule | FRET ratio of the CFP-UHRF1 (D142A/E153A)-YFP mutant, intramolecular [1] | binding result [2] | fold weaker binding than to TTD [3] | binding result [4] | chromatin binding of UHRF1 with K644E/K646E mutations in PBR (chromatin)
EGGFASPRTGKGKWKRKSAGGGPSRAGSPRRT (peptide, UniProt Q96T88 634-665, looked up) [human UHRF1 PBR peptide (residues 634-665)] | 0.52 | binds | ~3 fold | binds | –
K644E/K646E: UHRF1 with K644E/K646E mutations in the PBR sequence (previous study) (protein, UniProt Q96T88 1-793, looked up, variant K644E K646E) E3 ubiquitin-protein ligase …: MWIQVRTMDGRQTHTVDSLSRLTKVEELRRKIQELFHVEPGLQRLFYRGKQMEDGHTLFDYEVRLNDTIQLLVRQSLVLPHSTKERDSELSDTDSGCCLGQSESDKSSTHGEAAAETDSRPADEDMWDETELGLYKVNEYVDARDTNMGAWFEAQVVRVTRKAPSRDEPCSSTSRPALEEDVIYHVKYDDYPENGVVQMNSRDVRARARTIIKWQDLEVGQVVMLNYNPDNPKERGFWYDAEISRKRETRTARELYANVVLGDDSLNDCRIIFVDEVFKIERPGEGSPMVDNPMRRKSGPSCKHCKDDVNRLCRVCACHLCGGRQDPDKQLMCDECDMAFHIYCLDPPLSSVPSEDEWYCPECRNDASEVVLAGERLRESKKKAKMASATSSSQRDWGKGMACVGRTKECTIVPSNHYGPIPGIPVGTMWRFRVQVSESGVHRPHVAGIHGRSNDGAYSLVLAGGYEDDVDHGNFFTYTGSGGRDLSGNKRTAEQSCDQKLTNTNRALALNCFAPINDQEGAEAKDWRSGKPVRVVRNVKGGKNSKYAPAEGNRYDGIYKVVKYWPEKGKSGFLVWRYLLRRDDDEPGPWTKEGKDRIKKLGLTMQYPEGYLEALANREREKENSKREEEEQQEGGFASPRTGEGEWKRKSAGGGPSRAGSPRRTSKKTKVEPYSLTAQQSSLIREDKSNAKLWNEVLASLKDRPASGSPFQLFLSKVEETFQCICCQELVFRPITTVCQHNVCKDCLDRSFRAQVFSCPACRYDLGRSYAMQVNQPLQTVLNQLFPGYGNGR | – | – | – | – | reduced chromatin binding of UHRF1

Reference: article PMC5803408 (Structure (London, England : 1993), 2018)
